From article PMC5497066

Tests used:
[1] = biological target: single-ring mutant of GroEL, SR1 (E. coli), P0A6F5
[2] = biological target: single-ring truncation mutant, SRΔ526 (E. coli); test: protease protection (encapsulation); denatured PepQ-24F (100 nM) bound to wild-type or Δ526 GroEL-GroES-ADP bullets (200 nM) or full-length or Δ526 single-ring GroEL (300 nM) with GroES (600 nM); single turnover with ATP (2 mM), quenched after 10 s; unencapsulated PepQ digested with Proteinase K; SDS-PAGE, fluorescein scan

observed folding rate constant of PepQ by recovery of enzymatic activity, bound to SR1 (300 nM) and refolded with GroES (600 nM) and ATP (2 mM) [1]	early escape compared to SR1 [2]	Binder
0.62 min⁻¹	–	wild type E. coli PepQ, P21165 1-443 (enzyme) MESLASLYKNHIATLQERTRDALARFKLDALLIHSGELFNVFLDDHPYPFKVNPQFKAWVPVTQVPNCWLLVDGVNKPKLWFYLPVDYWHNVEPLPTSFWTEDVEVIALPKADGIGSLLPAARGNIGYIGPVPERALQLGIEASNINPKGVIDYLHYYRSFKTEYELACMREAQKMAVNGHRAAEEAFRSGMSEFDINIAYLTATGHRDTDVPYSNIVALNEHAAVLHYTKLDHQAPEEMRSFLLDAGAEYNGYAADLTRTWSAKSDNDYAQLVKDVNDEQLALIATMKAGVSYVDYHIQFHQRIAKLLRKHQIITDMSEEAMVENDLTGPFMPHGIGHPLGLQVHDVAGFMQDDSGTHLAAPAKYPYLRCTRILQPGMVLTIEPGIYFIESLLAPWREGQFSKHFNWQKIEALKPFGGIRIEDNVVIHENNVENMTRDLKLA
–	< 10%	PepQ-24F (enzyme, fluorescein (5-iodoacetamidofluorescein) on the cysteine at position 24) MESLASLYKNHIATLQERTRDALCRFKLDALLIHSGELFNVFLDDHPYPFKVNPQFKAWVPVTQVPNCWLLVDGVNKPKLWFYLPVDYWHNVEPLPTSFWTEDVEVIALPKADGIGSLLPAARGNIGYIGPVPERALQLGIEASNINPKGVIDYLHYYRSFKTEYELACMREAQKMAVNGHRAAEEAFRSGMSEFDINIAYLTATGHRDTDVPYSNIVALNEHAAVLHYTKLDHQAPEEMRSFLLDAGAEYNGYAADLTRTWSAKSDNDYAQLVKDVNDEQLALIATMKAGVSYVDYHIQFHQRIAKLLRKHQIITDMSEEAMVENDLTGPFMPHGIGHPLGLQVHDVAGFMQDDSGTHLAAPAKYPYLRCTRILQPGMVLTIEPGIYFIESLLAPWREGQFSKHFNWQKIEALKPFGGIRIEDNVVIHENNVENMTRDLKLA
